The target of assay [1] is T1, recombinant biotinylated human BCMA (human, UniProt Q02223 1-54, biotinylated).
T1 construct: Soluble labelled reagent, detected with streptavidin-APC; also called recombinant BCMA; biotinylated BCMA
T1 sequence (looked up): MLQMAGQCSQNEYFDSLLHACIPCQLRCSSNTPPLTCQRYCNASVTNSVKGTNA
As to the kind of experiment: flow cytometry, recombinant BCMA on CAR-T cells. The procedure: Allogeneic anti-BCMA CAR T cells were generated as described above. Anti-BCMA CAR expression was measured by determining the percent of cells that bound biotinylated BCMA subsequently detected by FACS using streptavidin-APC (FIG. 47).
Figure 48: FIG. 48 is a graph showing anti-BCMA CAR expression. Allogeneic CAR T cells were generated as previously described. Anti-BCMA CAR expression was measured by determining the percent of cells that bound biotinylated recombinant human BCMA subsequently detected by FACS using streptavidin-APC. […] CAR constructs were evaluated for their ability to kill RPMI-8226 cells. […] Following enrichment/purification, greater than 99.5% of the gene edited cells are TCR negative.
In general terms: In flow cytometry, cells or beads pass a laser one at a time.

Assay [2] addresses T1, recombinant biotinylated human BCMA. Nature of the assay: flow cytometry, biotinylated BCMA on CAR-T cells detected with streptavidin-APC. The method, then:
Allogeneic TRAC−/B2M−/anti-BCMA CAR T+ cells were generated, as described above, having either a CD28 co-stimulatory domain (encoded by CTX-160 or CTX-166) or a 4-1BB co-stimulatory domain (encoded by CTX160b or CTX166b). Anti-BCMA CAR expression was measured by determining the percent of cells that bound biotinylated BCMA subsequently detected by FACS using streptavidin-APC (FIG. 67). Greater than 60% of the cells expressed the CAR at the cell surface.

B1: anti-BCMA CAR of CTX-152 (BCMA-1: CD8[signal peptide]-VH-linker-VL-CD8[tm]-CD28[co-stimulatory domain]-CD3z) (other)
chain: QVQLQQSGGGLVQPGGSLKLSCAASGIDFSRYWMSWVRRAPGKGLEWIGEINPDSSTINYAPSLKDKFIISRDNAKNTLYLQMSKVRSEDTALYYCASLYYDYGDAMDYWGQGTSVTVSSGGGGSGGGGSGGGGSGDIVMTQSQRFMTTSVGDRVSVTCKASQSVDSNVAWYQQKPRQSPKALIFSASLRFSGVPARFTGSGSGTDFTLTISNLQSEDLAEYFCQQYNNYPLTFGAGTKLELKSAAAFVPVFLPAKPTTTPAPRPPTPAPTIASQPLSLRPEACRPAAGGAVHTRGLDFACDIYIWAPLAGTCGVLLLSLVITLYCNHRNRSKRSRLLHSDYMNMTPRRPGPTRKHYQPYAPPRDFAAYRSRVKFSRSADAPAYQQGQNQLYNELNLGRREEYDVLDKRRGRDPEMGGKPRRKNPQEGLYNELQKDKMAEAYSEIGMKGERRRGKGHDGLYQGLSTATKDTYDALHMQALPPR
notes: CAR on edited primary human T cells, co-expressed with GFP from a bicistronic 2A mRNA; also called BCMA-1 CAR
Take B1: the binding result in assay [1] is on record as “binds”.

B2: anti-BCMA CAR of CTX-154 (BCMA-2: CD8[signal peptide]-VL-linker-VH-CD8[tm]-CD28[co-stimulatory domain]-CD3z) (other)
chain: DIVMTQSQRFMTTSVGDRVSVTCKASQSVDSNVAWYQQKPRQSPKALIFSASLRFSGVPARFTGSGSGTDFTLTISNLQSEDLAEYFCQQYNNYPLTFGAGTKLELKGGGGSGGGGSGGGGSGQVQLQQSGGGLVQPGGSLKLSCAASGIDFSRYWMSWVRRAPGKGLEWIGEINPDSSTINYAPSLKDKFIISRDNAKNTLYLQMSKVRSEDTALYYCASLYYDYGDAMDYWGQGTSVTVSSSAAAFVPVFLPAKPTTTPAPRPPTPAPTIASQPLSLRPEACRPAAGGAVHTRGLDFACDIYIWAPLAGTCGVLLLSLVITLYCNHRNRSKRSRLLHSDYMNMTPRRPGPTRKHYQPYAPPRDFAAYRSRVKFSRSADAPAYQQGQNQLYNELNLGRREEYDVLDKRRGRDPEMGGKPRRKNPQEGLYNELQKDKMAEAYSEIGMKGERRRGKGHDGLYQGLSTATKDTYDALHMQALPPR
notes: CAR on edited primary human T cells, co-expressed with GFP from a bicistronic 2A mRNA; also called BCMA-2 CAR
Take B2: in assay [1], the binding result is given as “binds”.

B3: anti-BCMA CAR of CTX-160b (4-1BB co-stimulatory domain) (other)
chain: EVQLVESGGGLVQPGGSLKLSCAASGIDFSRYWMSWVRQAPGKGLEWIGEINPDSSTINYADSVKGRFTISRDNAKNTLYLQMNLSRAEDTALYYCASLYYDYGDAMDYWGQGTLVTVSSGGGGSGGGGSGGGGSDIQMTQSPSSLSASVGDRVTITCRASQSVDSNVAWYQQKPEKAPKSLIFSASLRFSGVPSRFSGSGSGTDFTLTISSLQPEDFATYYCQQYNSYPLTFGAGTKLEIKSAAAFVPVFLPAKPTTTPAPRPPTPAPTIASQPLSLRPEACRPAAGGAVHTRGLDFACDIYIWAPLAGTCGVLLLSLVITLYCNHRNRKRGRKKLLYIFKQPFMRPVQTTQEEDGCSCRFPEEEEGGCELRVKFSRSADAPAYQQGQNQLYNELNLGRREEYDVLDKRRGRDPEMGGKPRRKNPQEGLYNELQKDKMAEAYSEIGMKGERRRGKGHDGLYQGLSTATKDTYDALHMQALPPR
notes: CAR on edited primary human T cells; also called anti-BCMA (4-1BB) CAR
With B3, the “percent of cells that bound biotinylated BCMA” value in assay [2] was greater than 60%.

B4: anti-BCMA CAR of CTX-166 (CD28 co-stimulatory domain) (other)
chain: QVQLVQSGAELKKPGASVKVSCKASGNTLTNYVIHWVRQAPGQRLEWMGYILPYNDLTKYSQKFQGRVTITRDKSASTAYMELSSLRSEDTAVYYCTRWDWDGFFDPWGQGTTVTVSSGGGGSGGGGSGGGGSEIVMTQSPATLSVSPGERASISCRASQSLVHSNGNTHLHWYQQRPGQAPRLLIYSVSNRFSEVPARFSGSGSGTDFTLTISSVESEDFAVYYCSQTSHIPYTFGGGTKLEIKSAAAFVPVFLPAKPTTTPAPRPPTPAPTIASQPLSLRPEACRPAAGGAVHTRGLDFACDIYIWAPLAGTCGVLLLSLVITLYCNHRNRSKRSRLLHSDYMNMTPRRPGPTRKHYQPYAPPRDFAAYRSRVKFSRSADAPAYQQGQNQLYNELNLGRREEYDVLDKRRGRDPEMGGKPRRKNPQEGLYNELQKDKMAEAYSEIGMKGERRRGKGHDGLYQGLSTATKDTYDALHMQALPPR
notes: CAR on edited primary human T cells; also called anti-BCMA (CD28) CAR
B4: in assay [2], the “percent of cells that bound biotinylated BCMA” value was greater than 60%.

B5: anti-BCMA CAR of CTX-166b (4-1BB co-stimulatory domain) (other)
chain: QVQLVQSGAELKKPGASVKVSCKASGNTLTNYVIHWVRQAPGQRLEWMGYILPYNDLTKYSQKFQGRVTITRDKSASTAYMELSSLRSEDTAVYYCTRWDWDGFFDPWGQGTTVTVSSGGGGSGGGGSGGGGSEIVMTQSPATLSVSPGERASISCRASQSLVHSNGNTHLHWYQQRPGQAPRLLIYSVSNRFSEVPARFSGSGSGTDFTLTISSVESEDFAVYYCSQTSHIPYTFGGGTKLEIKSAAAFVPVFLPAKPTTTPAPRPPTPAPTIASQPLSLRPEACRPAAGGAVHTRGLDFACDIYIWAPLAGTCGVLLLSLVITLYCNHRNRKRGRKKLLYIFKQPFMRPVQTTQEEDGCSCRFPEEEEGGCELRVKFSRSADAPAYQQGQNQLYNELNLGRREEYDVLDKRRGRDPEMGGKPRRKNPQEGLYNELQKDKMAEAYSEIGMKGERRRGKGHDGLYQGLSTATKDTYDALHMQALPPR
notes: as for B3
In the case of B5, the “percent of cells that bound biotinylated BCMA” value in assay [2] is greater than 60%.

B6: anti-BCMA CAR of CTX-160 (CD28 co-stimulatory domain) (other)
chain: EVQLVESGGGLVQPGGSLKLSCAASGIDFSRYWMSWVRQAPGKGLEWIGEINPDSSTINYADSVKGRFTISRDNAKNTLYLQMNLSRAEDTALYYCASLYYDYGDAMDYWGQGTLVTVSSGGGGSGGGGSGGGGSDIQMTQSPSSLSASVGDRVTITCRASQSVDSNVAWYQQKPEKAPKSLIFSASLRFSGVPSRFSGSGSGTDFTLTISSLQPEDFATYYCQQYNSYPLTFGAGTKLEIKSAAAFVPVFLPAKPTTTPAPRPPTPAPTIASQPLSLRPEACRPAAGGAVHTRGLDFACDIYIWAPLAGTCGVLLLSLVITLYCNHRNRSKRSRLLHSDYMNMTPRRPGPTRKHYQPYAPPRDFAAYRSRVKFSRSADAPAYQQGQNQLYNELNLGRREEYDVLDKRRGRDPEMGGKPRRKNPQEGLYNELQKDKMAEAYSEIGMKGERRRGKGHDGLYQGLSTATKDTYDALHMQALPPR
notes: as for B4
Consider B6, for which, in assay [2], the “percent of cells that bound biotinylated BCMA” value is greater than 60%.

(Values after patent US11071755 (CRISPR THERAPEUTICS, dated 2021).)
